The test concerns the target human prothrombin (FII) (human, UniProt P00734 44-622, gamma-carboxylated glutamate residues in the Gla domain). Kind of test: SPR. In general terms: In SPR one partner is held on a chip, and binding of the other changes the refractive index at the surface.

For orientation: Kd means the constant that tells how readily two partners part at equilibrium. A lower Kd goes with a tighter complex.

B1: Ad1 hexon, on wild-type human adenovirus type 1 virions (natural protein)
chain: ATPSMMPQWSYMHISGQDASEYLSPGLVQFARATETYFSLNNKFRNPTVAPTHDVTTDRSQRLTLRFIPVDREDTAYSYKARFTLAVGDNRVLDMASTYFDIRGVLDRGPTFKPYSGTAYNALAPKGAPNSCEWEQEEPTQEMAEELEDEEEAEEEEAEEEAEAPQADQKVKKTHVYAQAPLAGEKITANGLQIVSDTQTEGNPVFADPTYQPEPQVGESQWNEAEATASGGRVLKKTTPMKPCYGSYARPTNKNGGQGILVANNQGALESKVEMQFFAPSGTAMNERNAVQPSIVLYSEDVNMETPDTHISYKPSKTDENSKAMLGQQAMPNRPNYIAFRDNFIGLMYYNSTGNMGVLAGQASQLNAVVDLQDRNTELSYQLLLDSIGDRTRYFSMWNQAVDSYDPDVRIIENHGTEDELPNYCFPLGGIGVTDTYQGIKSNGNGNPQNWTKNDDFAARNEIGVGNNFALEINLNANLWRNFLYSNIALYLPDKLKYTPTNVEISPNPNSYDYMNKRVVAPGLVDCYINLGARWSLDYMDNVNPFNHHRNAGLRYRSMLLGNGRYVPFHIQVPQKFFAIKNLLLLPGSYTYEWNFRKDVNMVLQSSLGNDLRVDGASIKFDSICLYATFFPMAHNTASTLEAMLRNDTNDQSFNDYLSAANMLYPIPANATNVPISIPSRNWAAFRGWAFTRLKTKETPSLGSGYDPYYTYSGSIPYLDGTFYLNHTFKKVAITFDSSVSWPGNDRLLTPNEFEIKRSVDGEGYNVAQCNMTKDWFLVQMLANYNIGYQGFYIPESYKDRMYSFFRNFQPMSRQVVDDTKYKDYQQVGILHQHNNSGFVGYLAPTMREGQAYPANFPYPLIGKTAVDSITQKKFLCDRTLWRIPFSSNFMSMGALTDLGQNLLYANSAHALDMTFEVDPMDEPTLLYVLFEVFDVVRVHQPHRGVIETVYLRTPFSAGNATT
Molecule B1 returned a Kd of 5 nM.

(Values after article PMC9536601 (2022).)
